The Immune Epitope Database (IEDB)
pKd: −log10 of the molar value.

How the values were obtained:
Test in all cases: IEDB peptide-MHC binding, purified MHC/competitive/radioactivity; filed as Kd, often an IC50 or EC50 that approximates it; ≥ and ≤ were set here for values at or beyond the usual limits of such assays
HLA-A*02:02 = conditions: source organism: Vaccinia virus WR
HLA-A*02:03 = molecular target: HLA-A*02:03
HLA-A*02:06 = conditions: source organism: Vaccinia virus WR
HLA-A*03:01 = molecular target: HLA-A*03:01
HLA-A*11:01 = molecular target: HLA-A*11:01
HLA-A*31:01 = molecular target: HLA-A*31:01
HLA-A*33:01 = molecular target: HLA-A*33:01
HLA-A*68:01 = molecular target: HLA-A*68:01
[1] = source organism: Vaccinia virus WR
[2] = source organism: SARS coronavirus Tor2
[3] = source organism: Vaccinia virus Copenhagen
[4] = source organism: Lassa virus Josiah

| Sequence | pKd (HLA-A*03:01; [1]) | pKd (HLA-A*11:01; [1]) | pKd (HLA-A*31:01; [1]) | pKd (HLA-A*33:01; [1]) | pKd (HLA-A*68:01; [1]) | further results |
| --- | --- | --- | --- | --- | --- | --- |
| SICLDYIIV | – | – | – | – | – | pKd (HLA-A*02:02): 5.84; pKd (HLA-A*02:03; [1]): 5.06; pKd (HLA-A*02:06): 6.16 |
| SIHLTKTDKK | 6.73 | 6.56 | ≤ 4.66 | ≤ 4.15 | 5.70 | – |
| SISEINEWL | – | – | – | – | – | pKd (HLA-A*02:02): 9.89; pKd (HLA-A*02:03; [1]): 8.74; pKd (HLA-A*02:06): 8.20 |
| SLSVETITEK | 7.48 | 6.93 | 5.90 | ≤ 4.15 | 4.91 | – |
| SQMLLIVLK | – | – | – | – | – | pKd (HLA-A*03:01; [2]): 6.69; pKd (HLA-A*11:01; [2]): 9.30; pKd (HLA-A*31:01; [2]): 6.46; pKd (HLA-A*33:01; [2]): 5.30; pKd (HLA-A*68:01; [2]): 6.51 |
| SSLDQTHIK | – | – | – | – | – | pKd (HLA-A*03:01; [3]): 6.02; pKd (HLA-A*11:01; [3]): 7.50; pKd (HLA-A*31:01; [3]): 7.59; pKd (HLA-A*33:01; [3]): 4.70; pKd (HLA-A*68:01; [3]): 5.83 |
| STNLCTHSFR | – | – | – | – | – | pKd (HLA-A*03:01; [2]): 6.53; pKd (HLA-A*11:01; [2]): 7.97; pKd (HLA-A*31:01; [2]): 9.03; pKd (HLA-A*33:01; [2]): 8.05; pKd (HLA-A*68:01; [2]): 8.21 |
| STRTIILVGY | 6.73 | 6.66 | 6.47 | 5.10 | 7.00 | – |
| STVDVRNIV | – | – | – | – | – | pKd (HLA-A*02:02): 5.20; pKd (HLA-A*02:03; [1]): 5.46; pKd (HLA-A*02:06): 5.79 |
| SVEDVSAFVR | ≤ 4.15 | 7.43 | 6.18 | 5.67 | 7.81 | – |
| SVIRLLIWAY | 5.86 | 7.76 | 5.65 | 4.75 | 6.11 | – |
| TAYIGTSNWT | – | – | – | – | – | pKd (HLA-A*02:02): 5.75; pKd (HLA-A*02:03; [1]): 5.98; pKd (HLA-A*02:06): 6.66 |
| TFNSLNTDDY | 5.26 | 5.00 | ≤ 4.47 | ≤ 4.15 | 5.39 | – |
| TIDKSSPLYI | – | – | – | – | – | pKd (HLA-A*02:02): 6.41; pKd (HLA-A*02:03; [1]): 7.91; pKd (HLA-A*02:06): 5.74 |
| TLNEYKQLYT | – | – | – | – | – | pKd (HLA-A*02:02): 6.84; pKd (HLA-A*02:03; [1]): 6.11; pKd (HLA-A*02:06): ≤ 4.16 |
| TLTNTSIINH | – | – | – | – | – | pKd (HLA-A*03:01; [4]): 5.29; pKd (HLA-A*11:01; [4]): 4.81; pKd (HLA-A*31:01; [4]): ≤ 4.22; pKd (HLA-A*33:01; [4]): ≤ 4.15; pKd (HLA-A*68:01; [4]): 4.88 |
| TMKAIEKDRL | – | – | – | – | – | pKd (HLA-A*02:02): 6.77; pKd (HLA-A*02:03; [1]): 5.97; pKd (HLA-A*02:06): ≤ 4.16 |
| TQVLKTMSLY | – | – | – | – | – | pKd (HLA-A*03:01; [2]): 6.73; pKd (HLA-A*11:01; [2]): 5.57; pKd (HLA-A*31:01; [2]): 5.03; pKd (HLA-A*33:01; [2]): ≤ 4.56; pKd (HLA-A*68:01; [2]): 4.99 |

| Sequence | pKd (HLA-A*03:01; [1]) | pKd (HLA-A*11:01; [1]) | pKd (HLA-A*31:01; [1]) | pKd (HLA-A*33:01; [1]) | pKd (HLA-A*68:01; [1]) | further results |
| --- | --- | --- | --- | --- | --- | --- |
| TTKDYFSFKK | 7.50 | 8.90 | 7.02 | 5.88 | 9.25 | – |
| TVPTNDHIPV | – | – | – | – | – | pKd (HLA-A*02:02): 5.77; pKd (HLA-A*02:03; [1]): 5.72; pKd (HLA-A*02:06): 6.29 |
| TVYDDAARR | – | – | – | – | – | pKd (HLA-A*03:01; [2]): 6.34; pKd (HLA-A*11:01; [2]): 7.01; pKd (HLA-A*31:01; [2]): 5.94; pKd (HLA-A*33:01; [2]): 5.30; pKd (HLA-A*68:01; [2]): 8.60 |
| VASDVCKKNL | – | – | – | – | – | pKd (HLA-A*02:02): ≤ 4.29; pKd (HLA-A*02:03; [1]): ≤ 4.15; pKd (HLA-A*02:06): ≤ 4.16 |
| VIGLTTHCTK | 7.81 | 7.34 | 6.12 | ≤ 4.45 | 7.14 | – |
| VLCNSQTSLR | – | – | – | – | – | pKd (HLA-A*03:01; [2]): 6.36; pKd (HLA-A*11:01; [2]): 5.73; pKd (HLA-A*31:01; [2]): 7.16; pKd (HLA-A*33:01; [2]): 5.93; pKd (HLA-A*68:01; [2]): 6.00 |
| VLDRDGNFR | 5.48 | 4.81 | 6.80 | 6.22 | 6.03 | – |
| VLTLATGPV | – | – | – | – | – | pKd (HLA-A*02:03; source organism: Dengue virus 4 Philippines/H241/1956): 7.60 |
| VSYEVFDDY | ≤ 4.43 | 6.87 | ≤ 4.11 | 4.72 | 5.80 | – |
| VTMMKYCSY | 6.19 | 8.06 | 6.34 | 5.69 | 6.28 | – |
| VTYVPSQER | – | – | – | – | – | pKd (HLA-A*03:01; [2]): 5.49; pKd (HLA-A*11:01; [2]): 6.05; pKd (HLA-A*31:01; [2]): 7.63; pKd (HLA-A*33:01; [2]): 6.47; pKd (HLA-A*68:01; [2]): 5.95 |
| VVPDYGTYK | – | – | – | – | – | pKd (HLA-A*03:01; [2]): 6.51; pKd (HLA-A*11:01; [2]): 7.07; pKd (HLA-A*31:01; [2]): 5.57; pKd (HLA-A*33:01; [2]): 4.76; pKd (HLA-A*68:01; [2]): 6.31 |
| WFLKSGAVVK | 7.96 | 6.94 | 5.12 | 5.36 | 6.72 | – |
| WLSSKGLACY | 6.38 | ≤ 4.54 | 4.71 | ≤ 4.23 | ≤ 4.55 | – |
| YFTFGDTALY | 5.05 | 5.19 | ≤ 4.32 | ≤ 4.34 | 7.30 | – |
| YLRNYMVIK | 8.87 | 6.05 | 7.46 | 6.03 | 5.78 | – |
| YVKNGTKGK | 5.68 | 6.06 | ≤ 4.14 | ≤ 4.18 | 7.41 | – |
